The target in experiment [1] is NRBF2_3A (UniProt Q8VCQ3). Nature of the experiment: co-IP; competitive co-IP: FLAG-tagged bait and GFP-tagged competitor transiently over-expressed in HEK293T; anti-FLAG M2 magnetic beads; immunoblot for endogenous PIK3R4/VPS15 and PIK3C3/VPS34; Figure 6C also after 100 nM rapamycin (2 h) or EBSS medium (2 h).
For experiment [2], the target named is NRBF2_5A (UniProt Q8VCQ3). The description is as above.

From publication PMC12758336 come the findings set out here.

For the substance “endogenous PIK3R4/VPS15 (from UniProt Q99570 1-1358) (natural protein)”, the endogenous PIK3R4/VPS15 pulled down, against wild type (% less than wild type) in experiment [1] and in experiment [2] was 50 in each case.
